Data as given in the DeepSol protein solubility set.

Assay: soluble on expression in E. coli; label from the status in PepcDB or PDB records

Soluble on expression in E. coli, not soluble:
MGSDKIHHHHHHMFVCEVRFECFADTTISAAQHAINHLLEAWRANGQILGREFAVSFHDGEFKARLMLPAQDSLANRHNSPWAKAALKGLTDAKILPPREKLLGQDINANESATHTPEWQLLYTSYVHMCSPVRSGDNLLPIPLYKLPATFNGDHKQLIRWQTEWQACDELQMASATKAEFAALDELCNVGSDLFRRGWDLRGRIEYLTKIPTYYYLYRVGGSSLQDELARPCPRCGSTGWRLDEPLLDMFHFRCEPCRIVSNLSWDYQ
MGSDKIHHHHHHMGDLSDIRVFLAVAQQRSFTAAARQLSMTPPTVTRSVSALEQSLGVQLLLRTTRQVSLTSAGAVYAARVEPLIRQFDQVRDDLREEQGDVAGLIRINAPLSLGQQLLPDIVSGFRAEHPQVSVSLSLTDRFIDIVSERFDLALRVSEAPRDRSTIWRKVCRVRRILVASPGYLAIFGTPETPDDLSRHGCIAYDEEAISETWELTNGGRTRKALAGKVLAANNGELIAKLVEDGQGLALLPHFIVGDALASARRAEAGPCRVGASGALADIVLSALRETADARCEILGLLRKICYPYAPAVKKRRTQVLFSRRKASFPAKGEHMLQEFDDALRHASFESDLNGLYAALLLSRSFGSSESRIRSLGRSLPDLSQQKSRFVWRRE
MGSDKIHHHHHHMGGIGLRRLGCGEAIQIGGDTRAGPVVQIESADHVQSGGDGKGLDTPSIGPDPKRVAVIGHHHVEGAIGVPVQIGKGLSGVHGIGMIQGFEYQFAARPLARRRAQRSDAVENGRHDAGIVDTQPGPPRQLVQPGHHFGAVVPPTARTIPGPGVHLVAIGGDDQRPLVARAAKQNKSAHSQKSVSSGLSARYNTTCVHRFHPVGAKHRKGYGTRLIMTAFDDREKAFEAKYRLDQEQEFKARIRRDKLLGLWAAEQMGISGDAAKTYALSVVDVEFDATDRDAGHKIVRDFIASGITLDEAAIRHQMAVLLEIAREQIVTEMGRP
MGSDKIHHHHHHMGISNIKQLYSKWKSLQPLKPEDLKRWNDKFKLEFNYNSNHLEGNTLTYGQTKLLLMFGETSGNASLKDYEEMKAHNVGLEMIKQEAQDKERPLTESFIRELNRTILVQDYWKNAKTPDGQDIRMQIKVGEYKSRPNSVLTATGEVFSYASPEETPAFMTSLVDWYNLEADKGILTPVELAALLHYRYIRIHPFEDGNGRIARLLVNFVLHRYGYPMIVIHSEDKSNYLNILHQCDVEAGLTPSDGANATLNDILPFVNYLSSCLIRSLTLAIKAAKGESIEEEGDFDKKIAMLQRRYSDKAIEKSSRSVEQARSAFFELAVYVEQKISGLQKLFDRTFITNTPTWNMARKINTPNPDEPIIQSHILYTKSKEYSFVEDIIRLSKKSQVDYFKLKYDAVTFHFNHCRYAGDNTFDFPFCIYIQYLSDGCEISCDITSDSVKLSYNPDVLAEEGKEYMDTACNELLKLLEEKMNDKSPEN
MGSDKIHHHHHHMGKLCSFLEKHKRSFPIGLSGNTGMGYILTGGISPLSRSKGLAIDQIIEIKGFWGNGKEFHLLRPNTKNELTNEWKALCGAAIFLGIITQVKLKTQPLRPLLSWTANLSFSELSECINQAESWPNSLSLQWIYGDDIFAHAIGEIKNTDDESVMIKLLEKLPFSRNRIINKFNNMKSLPNLSFGNNNNYNNSNHSEVLGLLGPAWQEKNKQVLKILKELINKRPNKSCYIASQQLGGLTHLNDLDTSFIHRDAIWKPWINGAWEAHNQAKRKRTLEWMTECWNNLEFICPGVHLAQIHPHLEWHKKELSSAFEDWLPNLEELKAIHDPRNIMPPLK
MGSDKIHHHHHHMGKPTGFMEYDRCEAASVEPKERIKNFNEFHVFLSKENQQKQAARCMDCGVPFCQSGMTIAGMTSGCPLHNLVPEWNDLVYTGNWEQAYNRLHKTNNFPEFTSRVCPALCEKACTCGHWGSPVSVRDNEHGIIETAYANGYAAPKPPKVRTGKKVAIIGSGPSGLAAADQLNQRGHDVTVYEREDRVGGLLMYGIPNMKLDKSIIDRKVNIMKEEGIHFVTGCDVGKDIKPAELYKKYDRVILCCGAKNPRDIKADGRDAKGIYFAVDYLTQNTKSLLNSNLTDGKFVSAKGKNVVIIGGGDTGNDCVGTAIRQGAKSVTQLEMMPCPPTERAANNPWPQWPKVLKTDYGQEEAIAVFGHDPRTYKTTVKEFHKDKNGNLKELTIVSLESKKDEKTGRFMMVPVEGSEKKLPAELVLIAAGFLGTESYVAKAFGVELNARTNVSTQEGHYATNVKNVYVAGDNHRGQSLVVWAIREGREAAREVDESLMGYSYLSVQ
MGSDKIHHHHHHMGLPMWANGDWRGSLYARHAPSSGMLHDYGAVFGSVEGNTTFYSGPPKADTVAQWARQAPADFRFCFKLPAQLTHDKRLVGIEDDFRTFCDALAPLHDRLGPTMVQLPRDFGARELPALAAFLEKWPSDMPCAVEVRHSEFFHKGDAEQQLNRLLITLGVDRVMLDVRPLFATPAGDDARLIKAQSEKPKRPLHVISTGRMPIVRFIGHCDMEINERLFAPWCERLALWIKQGKTPFLFVHTPDNRQAPQLARRFHARLSRCVTLPPLGDFPGERQSALF
MGSDKIHHHHHHMGTVLIHVCCAPDLLTTIFHVRDAEFFFYNPNIQPLSEYEKRREAVDKVANHFSLNVRYGEYSTEEIRKWYTAVKDYKDLGEGSKRCERCISFLLERTAQEARKRGHESFSTTLLASPRKNLPMIENIGKTIEEKYGVKFFFKNFRKGGAYQEGVRLSKELGIYRQNYCGCVFSLLERREKHAEISRKRGHM
MGSDKIHHHHHHMGTVPTPAGLAFFQQVQLALRHLDHAVDSAHSSRLSGHVTVGFSPSVAAVIGTHFLKLMRNRYPDIKVRLIEGLSGDLKALVNARQLDVAIIFSDDVDPQWAIQPLVKEQMFLISPKEVLNQYHLESCIDNQTITHSQLKELPLILPSQRHGLRLLLEQKIHQLKVAYEIDGLHLLMESISQLEMATIQPAGASLNSRQDLCLLRVVEPAIERINYLISLSEEELSPATLATKVVIRACVANLINEKRWPGAELINT
MGSDKIHHHHHHMGVVETAEWLHLYYGRPEKLCEKFTKYIPLPKERLYRFLISKGMYRPVMRGEREIKELEKKEVWKELRAEYEKLKDWLKGPDVPVFILLSDSYNRTVQEEYNGRAGLSMRHVIFLFVCGRNSVEELKVLLAHEYHHICRLHQIETKETEYTLLDTMIMEGLAEQAVTERYSEKNNAPWTTYLSKEEAIYYWKNVVHERISIKRGTREHDILLNGFHSYPKMLGYALGFHIVKDCVTLEGEDTLSLLPIDAKEILNKANTFHI
MGSDKIHHHHHHMHDVLIIGSGVIGMSIARHLSATHLDVAVIDRDVPGKHASYKAGGMLGAQNEFTEDSDLFQLAIESRAMFPQLSKSLLDETGIDIQFKNSGLIKIANEHDDISSIKRQYQFLNSQDRSVKQLSDDDLLQLTHGEVKPSYAAIHIPHDGQINAHHYTLALLESMKLRDIKRYESTEVTSIERHNGYYSVKTDQSSTIEAHKIIVAGGAWSSQLLTQYHLQRQVIGVKGEVILLENNDLSLTETLFMTNGCYIVPKQPNRFLIGATSEFNNYSVGTTDEGMDWLLRHAYHRVPQLKDSHILKKWSGVRPYTEKEMPVMDQIDDGLYVISGHYRNGILLSPIIGRDIANWLLSGIKPSRYSSFTVTRRNNHEVYH
MGSDKIHHHHHHMHFLDDSLLPENQEKLVIQVAPYGPQWLPGDSDDIPVTMDEQVQKAVDCYNAGATVLHVHVREADGKGSKRLSMFNEMLARLREAVPGMVLQVGGSISFAPENDNQAAKWLNDDTRHMLAELSPRPDQVTVAINTSQMNVMELMTEADVAGTSLTNPALQAAYRDMIVPSNPSWHVEHIKRLVANGIQPHFMLGNLTQLETVERLIRRGVYTGPLVLNYVAIGGGAAGLHPADMVEFARRTPDGAVLTVETLNRNVVPLNTMAIAMGLHVRVGIEDTLYGPDGKRATSVQQIEKMVNIARELNREIASGTDAHRIYQTGTRWSSTEETLNRLGMVPNRQPEQRGVPPRKAA
MGSDKIHHHHHHMHKDVSQLPQKANPALVKQANLFADLPTKLIEDFQQEFQLNQWNKGDYINSDILTQRFFVVIEGNIEIKQSNPDTGREATLDMLYAGDCFDLMVLLDNQPHEVIISPLTTVKLLSVKLSTMRYWLWTYPEFNQQFMPYIAKKMREKEQQASSLILHDVTTRLSRIILEHINKIKFYTGTKEEEHQHHLVNGLNDETLARMTGSVRQVINKQLQHWKKEDVIDKKRNQLIIKDLEALEKEAKYTQNLANAPLSKS
MGSDKIHHHHHHMHLELRHLRTIRAIHQAGGLARAADVLHMTQSALSHQVKGLEDQAGIELFVRRSKPLKLSAAGIRLLRLAERILPEIDALEDEFRALRSGRTGRLHIAIECHACFEWLFPVLELFRHAWPEIDVDIRAGLAFEALPALMREEVDLVISSDPVTVEGMVFNPLFDYHPTFVAAASNPLAAREFISAEDFRDQMLITYPVSRDRLDVFTEVLTPAKVEPRGTRQVELTAVILMLVASNRGVSVLPDWVLRDVRSHADYVTRPLGPKTVTKRLYAATRTEDATKPFMAHFLRLGRSEPVKLQRA
MGSDKIHHHHHHMIAGVPSVHPLPNMNHVEVKGVDLPAQIAQQVRKLINRGTLAPGLQLRQSDLADRFGISRVPVREALKLLAAEGIIEHDPNRGFFVAPLSTDEARQLYRYRFLLERELLKTVEWPDSTQMKALKAMLERLDSYLDSGQRAEWIDEYQDFYALLFDLSPDKILRREAIRLIRLTDRYRALASEVRVPGEQRTAHLEHTLLAAMSKRDRAQLIRGFEREREKILASMLARIDARGL
MGSDKIHHHHHHMIAVLRINHRPFRDKRITTHVALTARAFGASSILVDEKDETLEQTINKVVENFGGNFFIKSGVDWKREFRNFKGIRVHLTMYGRPLEDVVKEIRESKKDVMILVGSEKVPFEAYEIADYNVSVTNQPISEVSALAIFLDRFYDGEELNWRFTGKINVYPSERGKKVKIIPDEQGCLDLLYKYGASDYLINHVKSVKELAVAIAKKTNADINLVTAGALLHDIGRTQVQGITHAVVGADILRREGIDDRVVSIVEKHIGAGIQSEEAVKLGLPPDNYVPETIEEMIVAHADNLFAGDKRLKLQQVVDNYRKKGLEDAAERIAKLHKFLSTVIGQDMDEI
MGSDKIHHHHHHMIDLSTDYLGLKLKNPLVPSASPLSRNLDNALRLEDAGAAALVMYSLFEEELRAEDAMLDRFLTCPDFGHSEAANFLPSAPFEDGLERYVSQLQKLKARLGIPVIASLNGVSRSGWVELGRALEEAGADALELNVYHVAAEMWENGEAVEARYLSLLRDLRHAVKLPIVMKLSPFFSSLPNFVKRLEHAGAQGVVLFNRFYQPDIDLDTLCVVDRLHLSYPDEALLRIRWLSILHGRTGLTLAATGGVHSHDEALKMLLVGADVIHLASCLLQHGPARLTRILQDIERWMGERDYASVAQLKGSMSQKNLLDPAAMARLSYLRVLDSFSPQPGVWS
MGSDKIHHHHHHMIDPDDMDHCRHAIREGSYSFHAASKLLPSSVRDPALALYAFCRLADDEVDFGADKPAAVLALSERLEHAYQGRPRNHPTDRAFTAMIEEFDMPRALPEALLEGLAWDGMERRYATLSDLRSYSARVASAVGAMMCVLMRVRDEQALARACDLGVAMQLTNIARDVGEDAAERRLYLPTDWLEEEGIDIERLFTSPVSSPRLKRLTKRLLAEAHKLYLKSEPGIGRLPLAARPGIFAARHCYDAIGRNLAQHGYDNVNRRATTTGGHKMRLLGLSIVRAGLASILPESPVIFARPLPETAFLVEAAAHPAPNKDAWSDPLLSVLSQLKAQDRPHAAE
